“Also recorded” adds a separate entry of the source.
Key:
[1] = tested on: activated primary human hepatic stellate cells (HSCs); test: Cell cytotoxicity assay on activated hepatic stellate cells (myofibroblasts); format: cell-based; settings: FIG. 3
Protocol: (§1) In addition to the standard physico-chemical characterization, the leads were tested for the target potency and off-target toxicity. Initially, selective apoptotic activities of various TLY012 leads were tested in normal (off-target) and myofibroblasts (target cells) by utilizing quiescent and activated primary human hepatic stellate cells (HSCs) respectively. Briefly, quiescent and culture-activated HSCs were incubated with TLY012 leads and cell viability was determined by cell cytotoxicity assays.

[2] = tested on: quiescent primary human hepatic stellate cells (HSCs); test: Cell cytotoxicity assay on quiescent hepatic stellate cells (off-target); format: cell-based; settings: high concentrations (100 nM)
Protocol: as §1

[3] = tested on: primary human hepatocytes; test: Off-target toxicity in primary human hepatocytes; format: cell-based; settings: concentrations up to 100 nM
[4] = Formulation stability and freeze-thaw stability; format: physicochemical
Description: The stability may be evaluated by measuring the ratio of soluble material to the insoluble material that can be separated by centrifugation. The intact structure of stored material can also be confirmed by IEX-HPLC (SP-NPR) and RP-HPLC (C4).

ASPC-1/PSC xenografts = test: PSC/ASPC-1 subcutaneous xenograft in athymic nude mice; format: in vivo
Protocol: Six-week-old athymic nude mice were anesthetized for all procedures 5×10^6ASPC-1 cells (human pancreas adenocarcinoma ascites metastasis cell line derived from nude mouse xenografts initiated with cells from the ascites of a patient with cancer of the pancreas) were mixed with 5×10^4 PSC cells and injected in a subcutaneous in athymic nude mice. Before injection, the cells were trypsinized, counted, washed twice in 1×PBS and resuspended in 100 μl of Matrigel® matrix (Corning), and injected between the scapulae. Two weeks after the tumor transplantation, mice were injected with TLY012 via intravenous (IV) injection (10 mg/kg, every other day) for 2 weeks, while control mice received PBS. Western blot was performed on tissue extracts with antibodies against GAPDH (Santa Cruz 5 Biotechnology, sc-1694), α-SMA (Sigma, A2547), GRP78 (Santa Cruz Biotechnology, sc-13968), DR4 (Abcam, Cambridge, Mass., #13890), DR5 (Abcam, #47179), PDGF-Rb (Santa Cruz Biotechnology, sc-432), and Cl.PARP-1 (Cell Signaling Technology, #5625).
Comparative quantitative RT-PCR (qPCR) was performed in the tumor sample for fibrogenic markers. qPCR was performed in triplicate for each sample using fast SYBR Green Master Mix (Thermo Fisher Scientific) and StepOnePlus Real-Time PCR System (Thermo Fisher Scientific). The expression levels of target genes were normalized to the expression of 18s and calculated based on the comparative cycle threshold Ct method (2^−ΔΔCt).
Collagen deposition was detected with Masson's Trichrome staining and microscopy.
Mouse xenografts were generated as in Example 8. Two weeks after the tumor transplantation, mice were injected with TLY012 via intravenous (IV) injection (10 mg/kg, every other day) and/or sorafenib (20 mg/kg, oral everyday) for 2 weeks. The mice were euthanized when the tumor volume reached 1500 mm^3 and images of the excised xenografts recorded and tumor weight measured.

[5] = tested on: activated human primary pancreatic stellate cells (PSCs); test: Caspase 3/7 activity and immunoblot in activated pancreatic stellate cells; format: cell-based; settings: TLY012 30 or 100 ng/ml for 3h
Protocol: Human primary pancreatic stellate cells (PSCs) and stellate cell medium (SteCM) were obtained from ScienCell Research Laboratories (Carlsbad, Calif.). PSCs were cultured on Poly-L-Lysine coated plates in SteCM medium supplemented with 2% of FBS, 1% of stellate cell growth supplement, and 1% of penicillin/streptomycin solution according to the manufacturer's instructions. Pancreatic cancer associated fibroblasts (CAF08) and maintenance media (PC00B5) were obtained from Vitro Biopharma. 100 of PSCs were culture-activated for 7 to have the confluent population of activated cells or 2×10^4 cells of CAF08 were cultured on a 96 well microplate (Corning, CLS3917) for 24h and were incubated with TLY012 (at 30 ng/ml or 100 ng/ml) for 3h. After incubation, 50 μL of Caspase 3/7 substrate/lysis buffer was added to each well and incubated for 30 min after 30 min of equilibration period to room temperature. The luminescence of each sample was measured on a plate reader (Bio-Tek Instruments Inc) with parameters of 1 min lag time and 0.5 sec/well-read time (n=3).
For immunoblot, 100 of PSCs were culture activated on a 6 well plate for 7 days or 2×10^5 of CAF08 cells were plated on 6-well plates followed by control treatment or treatment with TLY012 (at 30 ng/ml or 100 ng/ml) for 3h. The lysates from the cells were tested for the presence of Cl.PARP-1 and SMA using Western bot.

[6] = tested on: Human Colon Carcinoma Fibroblasts HC-6231; test: Caspase 3/7 activity in colon cancer associated fibroblasts; format: cell-based; settings: TLY012 0-1000 ng/ml for 3h, FIG. 12A
Description: Human Colon Carcinoma Fibroblasts HC-6231 were obtained from Cell Biologics (Catalog Number HC-6231) and maintained in fibroblast media (Cell Biologics, Catalog Number M2267).

[7] = Single-dose pharmacokinetics in Cynomolgus monkeys (ELISA, serum)
Description: PK parameters were addressed in Cynomolgus monkeys. This was a single dose, parallel group, dose escalation study in 5 males and 5 females normal Cynomolgus monkeys ranging in age from 34 to 44 months. At the start date of the study body weights ranged from 2.9 to 3.9 kg for males and 2.9 to 3.2 kg for females. Blood samples were collected at time point indicated in Table 3 and serum samples prepared for analyzing drug levels.
A sandwich enzyme-linked immunosorbent assay (ELISA) for human TRAIL was developed to measure the concentrations of TLY012 in monkey serum. Briefly, serum samples were diluted in 0.5% normal monkey serum and incubated with anti-TRAIL capturing antibodies immobilized on ELISA plates. Test samples were analyzed at 1:200-1:168000 dilutions (depending on the predicted concentrations) to fit into the range of the standard curve (97 pg/mL-12.5 ng/mL). All data within the assay range were reported and provided for pharmacokinetic analysis
A compartment model independent pharmacokinetic analysis was conducted on dose and serum concentration-time data with Phoenix 64 WinNonlin software. The parameters addressed: maximum serum concentrations (Cmax), time (Tmax) to reach Cmax, time (Tlast) to reach the last quantifiable concentration (Clast), elimination half-life (t½). Area under the curve from zero to Clast (AUClast), the total area under the curve from zero to infinity (AUC). Total systemic clearance (CL) and steady state volume of distribution (Vss) was calculated for IV group. Clearance (CL/F) and volume of distribution (Vz/F) and bioavailability (F) was computed for the SC groups. In addition, dose-exposure relationship was evaluated by linear regression analysis.

In the case of “TLY012: PEGylated (5 kDa PEG-aldehyde) recombinant human TRAIL (114-281) fused to modified isoleucine zipper (miLZ) at N-terminus; SEQ ID NO:30 trimer”, the IC50 [1] is reported as 142 pM, the “effect / off-target toxicity on quiescent HSCs” value [2] is reported as “no effect” and the “effect / off-target toxicity on quiescent HSCs” value ([2]; listed as TLY012 leads) is reported as “no off-target toxicity”. The off-target toxicity [3] was “did not show any off-target toxicity”, the “resistance to multiple freeze-thaw cycles” value ([4]; formulated at 21-22 mg/mi, biological activity and HPLC appearance) was “resistant to multiple freeze-thaw cycles” and the “concentration at which formulation was stable” value ([4]; in the presence of physiological concentrations of salt, no detectable precipitation, same IEX-HPLC pattern) was “up to 25 mg/ml”. The “tumor weight, Mean” value (ASPC-1/PSC xenografts; TLY012 IV 10 mg/kg every other day and/or sorafenib 20 mg/kg oral everyday for 2 weeks) was 1109.5 mg, the “collagen deposition, Masson's Trichrome staining” value (ASPC-1/PSC xenografts; TLY012 IV 10 mg/kg every other day, 2 weeks, 10 mg/kg) was “reduced the levels of collagen; also recorded: markedly reduced collagen deposition” and the “PDGF-Rb, DR5, DR4 (and GRP78) protein levels in tumor, Western blot” value (ASPC-1/PSC xenografts; TLY012 IV 10 mg/kg every other day, 2 weeks, vs PBS controls, 10 mg/kg) was “markedly reduced; also recorded: significantly decreased”. The “mRNA levels of fibrogenic markers Acta2, Pdgf-r, Tgf-b in tumor (qPCR)” value (ASPC-1/PSC xenografts; TLY012 IV 10 mg/kg every other day, 2 weeks, vs control, 10 mg/kg) was “decreased; also recorded: significantly reduced”, the “Cl.PARP-1, immunoblot” value [5] was “detected” and the “caspase 3/7 activity (RLU)” value ([5]; vs control treatment) was “activated caspase 3/7”. For the same substance, the “apoptosis by Caspase3/7 activity assay” value [6] was “induced apoptosis”, the AUC ([7]; IV 10 mg/kg, female (ID 401)) was 7780 µg·h/mL and the AUCext ([7]; IV 10 mg/kg, female (ID 401)) was 0.185%. The Cmax ([7]; IV 10 mg/kg, female (ID 401)) was 319 µg/mL, the Tlast ([7]; IV 10 mg/kg, female (ID 401)) was 360 h and the Tmax ([7]; IV 10 mg/kg, female (ID 401)) was 0.250 h. It also gave an AUC ([7]; IV 10 mg/kg, male (ID 1)) of 8590 µg·h/mL, an AUCext ([7]; IV 10 mg/kg, male (ID 1)) of 0.411% and a Cmax ([7]; IV 10 mg/kg, male (ID 1)) of 289 µg/mL. It also gave a Tlast ([7]; IV 10 mg/kg, male (ID 1)) of 360 h, a Tmax ([7]; IV 10 mg/kg, male (ID 1)) of 0.250 h and an AUC ([7]; SC 2 mg/kg, female (ID 501)) of 836 µg·h/mL. For the same substance, the AUCext ([7]; SC 2 mg/kg, female (ID 501)) was 1.45%, the Cmax ([7]; SC 2 mg/kg, female (ID 501)) was 12.1 µg/mL and the “F (absolute bioavailability)” value ([7]; SC 2 mg/kg, female (ID 501)) was 53.7%. The Tlast ([7]; SC 2 mg/kg, female (ID 501)) was 264 h, the Tmax ([7]; SC 2 mg/kg, female (ID 501)) was 12.0 h and the AUC ([7]; SC 2 mg/kg, male (ID 101)) was 642 µg·h/mL. The AUCext ([7]; SC 2 mg/kg, male (ID 101)) was 0.779%, the Cmax ([7]; SC 2 mg/kg, male (ID 101)) was 10.8 µg/mL and the “F (absolute bioavailability)” value ([7]; SC 2 mg/kg, male (ID 101)) was 37.4%. It also gave a Tlast ([7]; SC 2 mg/kg, male (ID 101)) of 264 h, a Tmax ([7]; SC 2 mg/kg, male (ID 101)) of 6.00 h and an AUC ([7]; SC 10 mg/kg, female (ID 601)) of 6190 µg·h/mL. The AUCext ([7]; SC 10 mg/kg, female (ID 601)) was 0.266%, the Cmax ([7]; SC 10 mg/kg, female (ID 601)) was 52.7 µg/mL and the “F (absolute bioavailability)” value ([7]; SC 10 mg/kg, female (ID 601)) was 79.6%. The Tlast ([7]; SC 10 mg/kg, female (ID 601)) was 264 h, the Tmax ([7]; SC 10 mg/kg, female (ID 601)) was 48.0 h and the AUC ([7]; SC 10 mg/kg, male (ID 201)) was 6480 µg·h/mL. The AUCext ([7]; SC 10 mg/kg, male (ID 201)) was 0.0231%, the Cmax ([7]; SC 10 mg/kg, male (ID 201)) was 51.7 µg/mL and the “F (absolute bioavailability)” value ([7]; SC 10 mg/kg, male (ID 201)) was 75.4%. For the same substance, the Tlast ([7]; SC 10 mg/kg, male (ID 201)) was 360 h, the Tmax ([7]; SC 10 mg/kg, male (ID 201)) was 24.0 h and the AUC ([7]; SC 50 mg/kg, female (ID 701)) was 44200 µg·h/mL. For the same substance, the AUCext ([7]; SC 50 mg/kg, female (ID 701)) was 1.28%, the Cmax ([7]; SC 50 mg/kg, female (ID 701)) was 296 µg/mL and the “F (absolute bioavailability)” value ([7]; SC 50 mg/kg, female (ID 701)) was 114%. The Tlast ([7]; SC 50 mg/kg, female (ID 701)) was 360 h, the Tmax ([7]; SC 50 mg/kg, female (ID 701)) was 24.0 h and the AUC ([7]; SC 50 mg/kg, male (ID 301)) was 33400 µg·h/mL. It also gave an AUCext ([7]; SC 50 mg/kg, male (ID 301)) of 3.13%, a Cmax ([7]; SC 50 mg/kg, male (ID 301)) of 186 µg/mL and a Tlast ([7]; SC 50 mg/kg, male (ID 301)) of 264 h. For the same substance, the Tmax ([7]; SC 50 mg/kg, male (ID 301)) was 72.0 h, the “F (absolute bioavailability)” value ([7]; SC 50 mg/kg, male (ID 301), 50 mg/kg) was 77.88% and the “F (absolute bioavailability)” value ([7]; SC 50 mg/kg, male (ID 301), listed as TYL012, 50 mg/kg) was 77.8%. For the same substance, the “dose relationship of maximum serum (Cmax) concentrations” value ([7]; dose range 2-50 mg/kg) was “increased dose proportionately”.
